This note sets out measurements from patent US20230272082A1 (SENSEI BIOTHERAPEUTICS, published 2023).

Test [1] deals with T1, human VISTA (human, UniProt Q9H7M9 33-194, limits assumed).
T1 construct: also called hVISTA
The test can be described thus: flow cytometry on CHO-VISTA cells, pH 6.0, detection Anti-Fab 647 (legend: Fab on CHO-VISTA cells).

For test [2], the target named is T1, human VISTA. Kind of test: flow cytometry on CHO-VISTA cells, pH 7.4, detection Anti-Fab 647 (legend: Fab on CHO-VISTA cells). (In general: In flow cytometry, cells or beads pass a laser one at a time.)
The target of test [3] is T2, biotinylated hVISTA-Fc (human, biotinylated (site not stated)).
T2 construct: also called Human VISTA-Fc
T2 chain: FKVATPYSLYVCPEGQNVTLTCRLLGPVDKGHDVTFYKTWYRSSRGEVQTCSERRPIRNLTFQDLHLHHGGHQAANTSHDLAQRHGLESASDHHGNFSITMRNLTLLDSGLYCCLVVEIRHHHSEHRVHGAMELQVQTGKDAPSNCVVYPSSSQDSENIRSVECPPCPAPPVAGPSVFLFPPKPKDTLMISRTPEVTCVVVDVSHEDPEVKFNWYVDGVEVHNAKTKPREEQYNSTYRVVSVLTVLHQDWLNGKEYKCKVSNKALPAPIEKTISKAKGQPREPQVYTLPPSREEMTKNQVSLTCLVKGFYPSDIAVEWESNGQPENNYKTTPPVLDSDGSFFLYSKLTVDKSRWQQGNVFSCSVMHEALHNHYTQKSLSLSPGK
Kind of test: competition ELISA at pH 6.0; SNS-101 dilutions pre-incubated with biotinylated hVISTA-Fc, then added to wells coated with PSGL-1 (blocked partner).

Test [4] concerns the target T2, biotinylated hVISTA-Fc. Kind of test: competition ELISA at pH 6.0; SNS-101 dilutions pre-incubated with biotinylated hVISTA-Fc, then added to wells coated with VSIG-8 (blocked partner). (In general: ELISA stands for enzyme-linked immunosorbent assay.)
Test [5] addresses T2, biotinylated hVISTA-Fc. Kind of test: competition ELISA at pH 6.0; SNS-101 dilutions pre-incubated with biotinylated hVISTA-Fc, then added to wells coated with LRIG-1 (blocked partner).
Test [6] addresses T2, biotinylated hVISTA-Fc. The test can be described thus: competition ELISA at pH 6.0; SNS-101 dilutions pre-incubated with biotinylated hVISTA-Fc, then added to wells coated with Syndecan-2 (blocked partner).
Test [7] addresses T2, biotinylated hVISTA-Fc. The test can be described thus: competition ELISA at pH 6.0; SNS-101 dilutions pre-incubated with biotinylated hVISTA-Fc, then added to wells coated with VSIG-3 (blocked partner).

Positions count from the first letter of the chain named.

B1: antibody 55873 (mab#2) (antibody, V domains shown)
VH: EVQLVESGGGLVQPGGSLRLSCAASGFTFSSYSMNWVRQAPGKGLEWVSYISSSSSTIYYADSVKGRFTISRDNAKNSLYLQMNSLRAEDTAVYYCAREAGGVVGRVDFQHWGQGTLVTVSS
VL: DIQMTQSPSSLSASVGDRVTITCQASQDISNYLNWYQQKPGKAPKLLIYDASNLETGVPSRFSGSGSGTDFTFTISSLQPEDIATYYCQQADFLPPWTFGGGTKVEIK
notes: Fully human parental antibody; also called Anti-VISTA mAb #2
Take B1: the “FOB (fold over background)” value in test [1] came to 29.4; in test [2] it was 34.8.

B2: SNS-101 (antibody, human IgG1, V domains shown)
VH: B1 VH with S30D, S31D, S54D, S55A, S56D, V104L
VL: B1 VL with M4L, E55G, L94V
notes: Described as a fully human IgG1; also called antibody 67375
For orientation: IC50 means the concentration at which inhibition is half-maximal. Turning to B2, the IC50 in test [3] was found to be 7 nM; in test [4] it was 6 nM; in test [5], 6 nM; in test [6], 6 nM; in test [7] it was 6 nM.
